Measurements published in patent US20150246971A1 (RESEARCH DEVELOPMENT FOUNDATION, published 2015).
One block for each binder: values may come before it.

Tests used:
[1] = target: T1, soluble human JAM-C-FLAG protein (human, UniProt Q9BX67 32-237); assay: SPR (Biacore 2000), JAM-C FLAG on a CM5 chip
T1 construct: Amine-coupled to a Biacore CM5 chip; also called immobilized JAM-C; human soluble JAM-C FLAG protein
T1 sequence: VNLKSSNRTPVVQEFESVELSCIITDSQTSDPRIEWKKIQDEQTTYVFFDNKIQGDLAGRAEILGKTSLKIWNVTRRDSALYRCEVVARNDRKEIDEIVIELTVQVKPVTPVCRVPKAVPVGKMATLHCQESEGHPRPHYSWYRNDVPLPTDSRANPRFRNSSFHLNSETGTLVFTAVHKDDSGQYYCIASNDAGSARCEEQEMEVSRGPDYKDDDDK
Protocol: (§1) To confirm the specificity of the JAM-C/JAM-B interaction at the molecular level, soluble human JAM-C-FLAG protein was covalently immobilized to a Biacore CM5 sensor chip Immobilization was assessed by testing the binding of anti-JAM-C monoclonal and polyclonal antibodies. […] Homotypic JAM-C/JAM-C interaction was never observed under these conditions, even when injecting higher concentrations of JAM-C Fc. […] To validate these findings for the model of human cells injected into mice, the inventors subsequently confirmed that human JAM-C binds to murine JAM-B to the same extent as to human JAM-B (FIG. 6B).
(§2) Interaction studies were performed on a Biacore 2000 (GE Healthcare). Recombinant proteins were immobilized at a concentration of 5 μg/mL on a CM5 sensor chip using the amine coupling kit (NHS-EDC) provided by the Biacore supplier. Background signal from a reference channel without soluble JAM-C was automatically subtracted. Proteins (30 μL) were injected (Kinject) in running buffer (400 μM Tris-HCl pH 7.4, containing 145 mM NaCl) at a flow rate of 20 μL/min.

[2] = target: T2, human JAM-C (full-length, on cells) (human, UniProt Q9BX67 32-310); assay: adhesion of CFSE-labelled JAM-C-transfected Raji cells to coated Fc protein
T2 construct: whole, on cells; also called HuJAM-C; junctional adhesion molecule C
T2 sequence (looked up): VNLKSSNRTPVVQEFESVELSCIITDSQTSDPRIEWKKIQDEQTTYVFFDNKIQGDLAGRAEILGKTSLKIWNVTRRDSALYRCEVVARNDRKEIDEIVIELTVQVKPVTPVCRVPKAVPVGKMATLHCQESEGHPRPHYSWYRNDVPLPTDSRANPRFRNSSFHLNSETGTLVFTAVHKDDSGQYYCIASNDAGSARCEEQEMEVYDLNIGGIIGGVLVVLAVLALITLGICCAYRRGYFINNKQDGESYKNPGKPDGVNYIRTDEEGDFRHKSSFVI
Protocol: (§3) Although homotypic JAM-C/JAM-C and heterotypic JAM-C/JAM-B interactions have been reported, the endothelial ligand for JAM-C on B cells had not been described. To investigate this interaction, adhesion assays were performed. Culture plates were coated with recombinant human and murine JAM-B Fc, human JAM-C Fc, human VCAM-1 Fc as a positive control, and JAM-A Fc as a negative control. The JAM-Cneg B cell line Raji was transfected with the full-length human JAM-C cDNA and mock-transfected cells were used as a control (FIG. 5A). Whereas mock-transfected Raji cells adhered only to VCAM-1, JAM-C transfected Raji cells adhered to JAM-B and VCAM-1, but adhered neither to JAM-C nor to JAM-A (FIG. 5B-C). […]
(§4) For cell adhesion assays, NUNC 269787 adhesion plates were successively coated with anti-huFc antibody (Jackson Immuno Research) at 2.5 μg/mL, Fc-labeled proteins at 2.5 μg/mL, and blocked with 1% BSA (purified fraction V, Sigma). […] One hundred microliters of lysed cells were transferred into a 96-well plate (micro-clear plates black, Greiner), and fluorescence (πex 485 nm; πem 538 nm) was measured with a Flex Station Microplate reader (Molecular Devices). Data were expressed either in arbitrary units or as the ratio of the fluorescence measured on JAM-B Fc coated wells to the fluorescence measured on wells coated with Fc control protein.

[3] = target: T1, soluble human JAM-C-FLAG protein; assay: SPR (Biacore 2000), JAM-C FLAG on a CM5 chip, response at the end of injection
Protocol: as §1, §2

[4] = target: T2, human JAM-C (full-length, on cells); assay: adhesion of CFSE-labelled JAM-C-transfected Raji cells to coated Fc protein (human and murine JAM-B Fc coated)
Protocol: as §3, §4

binding result [1]: binds
binding result [2]: binds
B1: recombinant human JAM-B Fc (Fc fusion)
chain: FSAPKDQQVVTAVEYQEAILACKTPKKTVSSRLEWKKLGRSVSFVYYQQTLQGDFKNRAEMIDFNIRIKNVTRSDAGKYRCEVSAPSEQGQNLEEDTVTLEVLVAPAVPSCEVPSSALSGTVVELRCQDKEGNPAPEYTWFKDGIRLLENPRLGSQSTNSSYTMNTKTGTLQFNTVSKLDTGEYSCEARNSVGYRRCPGKRMQVDDLNIS
notes: Bought (R&D); also called soluble JAM-B Fc; soluble human JAM-B Fc; not shown: Fc tag (detected with anti-human IgG1 Fc)

binding result [1]: binds
B2: human JAM-B FLAG (ligand)
chain: FSAPKDQQVVTAVEYQEAILACKTPKKTVSSRLEWKKLGRSVSFVYYQQTLQGDFKNRAEMIDFNIRIKNVTRSDAGKYRCEVSAPSEQGQNLEEDTVTLEVLVAPAVPSCEVPSSALSGTVVELRCQDKEGNPAPEYTWFKDGIRLLENPRLGSQSTNSSYTMNTKTGTLQFNTVSKLDTGEYSCEARNSVGYRRCPGKRMQVDDLNIS
notes: also called human JAM-B FLAG protein; not shown: FLAG tag

binding result [3]: binds
B3: murine JAM-B FLAG (ligand, UniProt Q9JI59 29-236, looked up)
chain: FSASKDHRQEVTVIEFQEAILACKTPKKTTSSRLEWKKVGQGVSLVYYQQALQGDFKDRAEMIDFNIRIKNVTRSDAGEYRCEVSAPTEQGQNLQEDKVMLEVLVAPAVPACEVPTSVMTGSVVELRCQDKEGNPAPEYIWFKDGTSLLGNPKGGTHNNSSYTMNTKSGILQFNMISKMDSGEYYCEARNSVGHRRCPGKRMQVDVLN
notes: also called murine JAM-B FLAG protein; not shown: FLAG tag

binding result [4]: binds
B4: recombinant murine JAM-B Fc (Fc fusion, UniProt Q9JI59 29-236, looked up)
chain: FSASKDHRQEVTVIEFQEAILACKTPKKTTSSRLEWKKVGQGVSLVYYQQALQGDFKDRAEMIDFNIRIKNVTRSDAGEYRCEVSAPTEQGQNLQEDKVMLEVLVAPAVPACEVPTSVMTGSVVELRCQDKEGNPAPEYIWFKDGTSLLGNPKGGTHNNSSYTMNTKSGILQFNMISKMDSGEYYCEARNSVGHRRCPGKRMQVDVLN
notes: Coated on adhesion plates; also called mouse JAM-B; not shown: Fc tag (captured by anti-huFc antibody)
